# Molecular target: barnase (UniProt P00648)
# Assay: cell-based or functional assay
# UniProt P00648, sequence (P00648 48-157 limits assumed): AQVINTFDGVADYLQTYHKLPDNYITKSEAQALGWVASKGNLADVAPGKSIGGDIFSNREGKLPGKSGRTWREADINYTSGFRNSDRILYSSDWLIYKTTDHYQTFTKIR
substance,measurement,value
barstar (from UniProt P11540 2-90),percent LUC positive shoots from barstar5 explants transformed with pBH700 (against 15% from wild type explants without barstar),46%

# Reference: US6521458
